# Measured values published in the supplement of paper PMC6757056.
# ± gives the standard deviation of the averaged measurements.
# B1: library; a variant is named by its letters at N, in order (parent)
# chain: GCUGUCACCGAGAAACUGUGAAGUAUAUCUUAAACCUGGGCACUUAAAAGAUAUAUGGAGUUAGUAGUGCAACCUGCUCGGUCUGAUGAGUCCNNNNNNGGACGAAACAGC
# Experiments:
# cyclic di-GMP [1] = variants of: B1; assay: normalized RNA/DNA level without ligand (relative to sTRSVctl = 100) (log10 (% of sTRSVctl)); HEK293T; ligand: cyclic di-GMP (c-di-GMP-II aptamer); higher = less ribozyme self-cleavage, higher mRNA level; conditions: reporter: mCherry (pCS4076), ligand present: no
# Procedure, shortened: (§1)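 Ribozyme switch library plasmids with mCherry reporters (eGFP in certain ligand experiments) went into HEK293T cells at 4 µg per 6-well well. Where ligand was used, it was applied 1 h before transfection, and total RNA was extracted with EDTA 72 h later for reverse transcription, amplification, barcoding and sequencing. RNA level is the RNA-to-DNA read ratio normalized to a spiked-in non-cleaving sequence or to the leading sequences, then scaled and log-transformed. Scaling was ×100 with log10, the leading set comprised 25 sequences, and the cutoff was ≥100 DNA reads.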
# cyclic di-GMP [2] = variants of: B1; assay: normalized RNA/DNA level with ligand (relative to sTRSVctl = 100) (log10 (% of sTRSVctl)); HEK293T; ligand: cyclic di-GMP (c-di-GMP-II aptamer); ligand concentration (+) RNA-Seq: 1 mM; higher = less ribozyme self-cleavage, higher mRNA level; conditions: reporter: mCherry (pCS4076), ligand present: yes
# Procedure, shortened: as §1
Variant,normalized RNA/DNA level without ligand (log10) (cyclic di-GMP [1]),normalized RNA/DNA level with ligand (log10) (cyclic di-GMP [2])
GCUGUCACCGAGAAACUGUGAAGUAUAUCUUAAACCUGGGCACUUAAAAGAUAUAUGGAGUUAGUAGUGCAACCUGCUCGGUCUGAUGAGUCCAACGUGGGACGAAACAGC,1.55 ± 0.083,1.7 ± 0.096
GCUGUCACCGAGAAACUGUGAAGUAUAUCUUAAACCUGGGCACUUAAAAGAUAUAUGGAGUUAGUAGUGCAACCUGCUCGGUCUGAUGAGUCCAACGUUGGACGAAACAGC,1.65 ± 0.056,1.82 ± 0.16
GCUGUCACCGAGAAACUGUGAAGUAUAUCUUAAACCUGGGCACUUAAAAGAUAUAUGGAGUUAGUAGUGCAACCUGCUCGGUCUGAUGAGUCCGACGUUGGACGAAACAGC,1.619 ± 0.0079,1.81 ± 0.12
GCUGUCACCGAGAAACUGUGAAGUAUAUCUUAAACCUGGGCACUUAAAAGAUAUAUGGAGUUAGUAGUGCAACCUGCUCGGUCUGAUGAGUCCGACGUGGGACGAAACAGC,1.71 ± 0.052,1.83 ± 0.11
GCUGUCACCGAGAAACUGUGAAGUAUAUCUUAAACCUGGGCACUUAAAAGAUAUAUGGAGUUAGUAGUGCAACCUGCUCGGUCUGAUGAGUCCGACUAAGGACGAAACAGC,1.55 ± 0.045,1.74 ± 0.12
GCUGUCACCGAGAAACUGUGAAGUAUAUCUUAAACCUGGGCACUUAAAAGAUAUAUGGAGUUAGUAGUGCAACCUGCUCGGUCUGAUGAGUCCGACUAGGGACGAAACAGC,1.668 ± 0.0042,1.79 ± 0.16
GCUGUCACCGAGAAACUGUGAAGUAUAUCUUAAACCUGGGCACUUAAAAGAUAUAUGGAGUUAGUAGUGCAACCUGCUCGGUCUGAUGAGUCCGACUACGGACGAAACAGC,1.7044 ± 0.00077,1.82 ± 0.15
GCUGUCACCGAGAAACUGUGAAGUAUAUCUUAAACCUGGGCACUUAAAAGAUAUAUGGAGUUAGUAGUGCAACCUGCUCGGUCUGAUGAGUCCGACUAUGGACGAAACAGC,1.645 ± 0.009,1.81 ± 0.12
GCUGUCACCGAGAAACUGUGAAGUAUAUCUUAAACCUGGGCACUUAAAAGAUAUAUGGAGUUAGUAGUGCAACCUGCUCGGUCUGAUGAGUCCUACGUUGGACGAAACAGC,1.684 ± 0.0031,1.84 ± 0.093
GCUGUCACCGAGAAACUGUGAAGUAUAUCUUAAACCUGGGCACUUAAAAGAUAUAUGGAGUUAGUAGUGCAACCUGCUCGGUCUGAUGAGUCCUACGUCGGACGAAACAGC,1.69 ± 0.06,1.81 ± 0.13
GCUGUCACCGAGAAACUGUGAAGUAUAUCUUAAACCUGGGCACUUAAAAGAUAUAUGGAGUUAGUAGUGCAACCUGCUCGGUCUGAUGAGUCCUACUCAGGACGAAACAGC,1.77 ± 0.062,1.89 ± 0.18
GCUGUCACCGAGAAACUGUGAAGUAUAUCUUAAACCUGGGCACUUAAAAGAUAUAUGGAGUUAGUAGUGCAACCUGCUCGGUCUGAUGAGUCCCACUAUGGACGAAACAGC,1.52 ± 0.067,1.72 ± 0.076
GCUGUCACCGAGAAACUGUGAAGUAUAUCUUAAACCUGGGCACUUAAAAGAUAUAUGGAGUUAGUAGUGCAACCUGCUCGGUCUGAUGAGUCCCACUACGGACGAAACAGC,1.64 ± 0.037,1.77 ± 0.11
GCUGUCACCGAGAAACUGUGAAGUAUAUCUUAAACCUGGGCACUUAAAAGAUAUAUGGAGUUAGUAGUGCAACCUGCUCGGUCUGAUGAGUCCCACUAGGGACGAAACAGC,1.759 ± 0.017,1.88 ± 0.14
GCUGUCACCGAGAAACUGUGAAGUAUAUCUUAAACCUGGGCACUUAAAAGAUAUAUGGAGUUAGUAGUGCAACCUGCUCGGUCUGAUGAGUCCCACGUUGGACGAAACAGC,1.729 ± 0.0022,1.86 ± 0.088
GCUGUCACCGAGAAACUGUGAAGUAUAUCUUAAACCUGGGCACUUAAAAGAUAUAUGGAGUUAGUAGUGCAACCUGCUCGGUCUGAUGAGUCCAACUAUGGACGAAACAGC,1.662 ± 0.014,1.79 ± 0.11
GCUGUCACCGAGAAACUGUGAAGUAUAUCUUAAACCUGGGCACUUAAAAGAUAUAUGGAGUUAGUAGUGCAACCUGCUCGGUCUGAUGAGUCCAACUAGGGACGAAACAGC,1.616 ± 0.0088,1.78 ± 0.13
GCUGUCACCGAGAAACUGUGAAGUAUAUCUUAAACCUGGGCACUUAAAAGAUAUAUGGAGUUAGUAGUGCAACCUGCUCGGUCUGAUGAGUCCAACUACGGACGAAACAGC,1.7 ± 0.019,1.84 ± 0.12
GCUGUCACCGAGAAACUGUGAAGUAUAUCUUAAACCUGGGCACUUAAAAGAUAUAUGGAGUUAGUAGUGCAACCUGCUCGGUCUGAUGAGUCCUACUACGGACGAAACAGC,1.75 ± 0.037,1.87 ± 0.08
GCUGUCACCGAGAAACUGUGAAGUAUAUCUUAAACCUGGGCACUUAAAAGAUAUAUGGAGUUAGUAGUGCAACCUGCUCGGUCUGAUGAGUCCUACUAGGGACGAAACAGC,1.697 ± 0.012,1.84 ± 0.09
GCUGUCACCGAGAAACUGUGAAGUAUAUCUUAAACCUGGGCACUUAAAAGAUAUAUGGAGUUAGUAGUGCAACCUGCUCGGUCUGAUGAGUCCUACUAAGGACGAAACAGC,1.71 ± 0.014,1.81 ± 0.061
GCUGUCACCGAGAAACUGUGAAGUAUAUCUUAAACCUGGGCACUUAAAAGAUAUAUGGAGUUAGUAGUGCAACCUGCUCGGUCUGAUGAGUCCGACUCAGGACGAAACAGC,1.709 ± 0.011,1.83 ± 0.11
GCUGUCACCGAGAAACUGUGAAGUAUAUCUUAAACCUGGGCACUUAAAAGAUAUAUGGAGUUAGUAGUGCAACCUGCUCGGUCUGAUGAGUCCGACUCCGGACGAAACAGC,1.77 ± 0.0029,1.89 ± 0.079
GCUGUCACCGAGAAACUGUGAAGUAUAUCUUAAACCUGGGCACUUAAAAGAUAUAUGGAGUUAGUAGUGCAACCUGCUCGGUCUGAUGAGUCCCACUCAGGACGAAACAGC,1.39 ± 0.1,1.62 ± 0.093
GCUGUCACCGAGAAACUGUGAAGUAUAUCUUAAACCUGGGCACUUAAAAGAUAUAUGGAGUUAGUAGUGCAACCUGCUCGGUCUGAUGAGUCCCACUCCGGACGAAACAGC,1.74 ± 0.077,1.84 ± 0.091
GCUGUCACCGAGAAACUGUGAAGUAUAUCUUAAACCUGGGCACUUAAAAGAUAUAUGGAGUUAGUAGUGCAACCUGCUCGGUCUGAUGAGUCCAACUCAGGACGAAACAGC,1.65 ± 0.035,1.8 ± 0.088
